# Experimental data as given in paper PMC6007489 (Nucleic Acids Research, 2018).
# T1: His–Rad1–Rad10 (S. cerevisiae, UniProt P06777 1-1100; P06838 1-210)
# T1 sequence (looked up) 1: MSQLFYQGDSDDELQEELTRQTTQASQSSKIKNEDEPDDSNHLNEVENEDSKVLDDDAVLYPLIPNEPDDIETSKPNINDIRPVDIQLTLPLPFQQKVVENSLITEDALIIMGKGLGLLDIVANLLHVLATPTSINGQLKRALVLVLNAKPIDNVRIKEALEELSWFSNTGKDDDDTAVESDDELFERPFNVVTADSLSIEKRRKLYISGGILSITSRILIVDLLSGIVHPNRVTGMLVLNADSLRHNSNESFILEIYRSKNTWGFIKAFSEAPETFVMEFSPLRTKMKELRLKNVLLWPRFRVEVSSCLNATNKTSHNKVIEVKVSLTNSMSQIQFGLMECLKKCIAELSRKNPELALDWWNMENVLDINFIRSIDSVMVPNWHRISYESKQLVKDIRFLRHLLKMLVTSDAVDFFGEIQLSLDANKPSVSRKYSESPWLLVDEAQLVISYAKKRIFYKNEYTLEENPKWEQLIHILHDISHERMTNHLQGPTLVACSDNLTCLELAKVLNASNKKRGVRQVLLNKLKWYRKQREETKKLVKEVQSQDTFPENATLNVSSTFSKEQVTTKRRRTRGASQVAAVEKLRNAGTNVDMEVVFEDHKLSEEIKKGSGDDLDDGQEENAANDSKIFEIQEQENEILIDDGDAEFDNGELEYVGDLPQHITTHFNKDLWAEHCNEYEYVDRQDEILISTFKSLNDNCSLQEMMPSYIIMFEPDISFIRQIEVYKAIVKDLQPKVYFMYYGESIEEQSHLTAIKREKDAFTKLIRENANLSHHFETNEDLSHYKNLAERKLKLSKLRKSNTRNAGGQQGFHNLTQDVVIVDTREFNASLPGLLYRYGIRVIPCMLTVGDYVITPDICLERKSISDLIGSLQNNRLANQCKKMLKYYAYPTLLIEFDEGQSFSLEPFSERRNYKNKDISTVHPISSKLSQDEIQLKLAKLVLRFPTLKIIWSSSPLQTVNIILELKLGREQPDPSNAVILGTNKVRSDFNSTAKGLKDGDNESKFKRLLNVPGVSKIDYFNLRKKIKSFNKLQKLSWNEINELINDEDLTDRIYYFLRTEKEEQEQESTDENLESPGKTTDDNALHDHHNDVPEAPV
# T1 sequence (looked up) 2: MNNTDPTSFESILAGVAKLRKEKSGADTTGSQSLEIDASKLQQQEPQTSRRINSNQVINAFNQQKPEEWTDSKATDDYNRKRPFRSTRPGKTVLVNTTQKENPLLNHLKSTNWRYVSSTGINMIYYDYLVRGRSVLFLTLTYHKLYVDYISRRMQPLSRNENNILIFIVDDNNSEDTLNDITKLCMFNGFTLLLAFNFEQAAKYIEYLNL
# B1: 6xHis–Saw1 (natural protein, S. cerevisiae, UniProt P39735 1-261, looked up)
# chain: MAPSIATVKIARDMVLPLRIFVNRKQILQTNDKTSNKSNATIFEAPLLSNNSIICLKSPNTRIYLSQQDKKNLCDEIKEDLLLIVYELASPEIISSVLSKIRVGHSTDFQINVLPKLFAGADTDNAVTSHIQSVTRLAKFKYKLHYKHKWELDIFINSIKKIANLRHYLMFQTLTLNGFSLNAGPKTLLARKIEKQPQVPNLLIENGDADALDTPVEEDIKPVIEFMYKPVINLGEIIDVHVLHRPRRHKVRTQSKQPQEE
# Key:
# Msh2–Msh3 [1] = molecular target: T2, Msh2–Msh3 (S. cerevisiae, UniProt P25847 1-964; P25336 1-1018); assay: far-Western, overlay or dot blot
# 6xHis–Saw1 = molecular target: B1; assay: co-IP
# His–Rad1–Rad10 = molecular target: T1, His–Rad1–Rad10; assay: co-IP
# Msh2–Msh3 [2] = molecular target: T2, Msh2–Msh3; assay: co-IP
# T2 sequence (P25847 whole entry, chain 1 of 2): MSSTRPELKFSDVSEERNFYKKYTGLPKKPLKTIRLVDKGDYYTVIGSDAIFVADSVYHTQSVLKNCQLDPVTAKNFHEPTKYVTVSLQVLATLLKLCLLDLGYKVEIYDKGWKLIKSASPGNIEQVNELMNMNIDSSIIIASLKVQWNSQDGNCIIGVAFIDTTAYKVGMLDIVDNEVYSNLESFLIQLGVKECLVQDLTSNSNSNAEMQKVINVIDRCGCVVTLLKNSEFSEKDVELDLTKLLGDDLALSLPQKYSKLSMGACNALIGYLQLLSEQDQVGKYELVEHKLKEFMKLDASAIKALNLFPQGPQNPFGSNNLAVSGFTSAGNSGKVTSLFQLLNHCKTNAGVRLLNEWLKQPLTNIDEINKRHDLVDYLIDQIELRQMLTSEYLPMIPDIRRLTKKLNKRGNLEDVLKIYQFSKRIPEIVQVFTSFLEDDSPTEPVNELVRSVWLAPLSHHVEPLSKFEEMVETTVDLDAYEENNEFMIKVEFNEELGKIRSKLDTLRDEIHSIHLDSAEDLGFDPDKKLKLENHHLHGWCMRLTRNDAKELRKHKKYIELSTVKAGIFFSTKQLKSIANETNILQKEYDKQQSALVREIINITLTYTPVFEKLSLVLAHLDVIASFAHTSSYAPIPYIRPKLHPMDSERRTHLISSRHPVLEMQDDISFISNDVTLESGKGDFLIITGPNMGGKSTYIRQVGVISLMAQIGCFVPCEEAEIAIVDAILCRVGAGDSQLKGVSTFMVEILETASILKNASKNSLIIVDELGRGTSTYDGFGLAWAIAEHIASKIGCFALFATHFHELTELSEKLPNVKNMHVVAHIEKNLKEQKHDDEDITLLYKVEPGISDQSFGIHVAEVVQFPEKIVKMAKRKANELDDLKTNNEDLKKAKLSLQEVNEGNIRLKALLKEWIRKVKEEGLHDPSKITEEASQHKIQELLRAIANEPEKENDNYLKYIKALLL
# T2 sequence (P25336 whole entry, chain 2 of 2): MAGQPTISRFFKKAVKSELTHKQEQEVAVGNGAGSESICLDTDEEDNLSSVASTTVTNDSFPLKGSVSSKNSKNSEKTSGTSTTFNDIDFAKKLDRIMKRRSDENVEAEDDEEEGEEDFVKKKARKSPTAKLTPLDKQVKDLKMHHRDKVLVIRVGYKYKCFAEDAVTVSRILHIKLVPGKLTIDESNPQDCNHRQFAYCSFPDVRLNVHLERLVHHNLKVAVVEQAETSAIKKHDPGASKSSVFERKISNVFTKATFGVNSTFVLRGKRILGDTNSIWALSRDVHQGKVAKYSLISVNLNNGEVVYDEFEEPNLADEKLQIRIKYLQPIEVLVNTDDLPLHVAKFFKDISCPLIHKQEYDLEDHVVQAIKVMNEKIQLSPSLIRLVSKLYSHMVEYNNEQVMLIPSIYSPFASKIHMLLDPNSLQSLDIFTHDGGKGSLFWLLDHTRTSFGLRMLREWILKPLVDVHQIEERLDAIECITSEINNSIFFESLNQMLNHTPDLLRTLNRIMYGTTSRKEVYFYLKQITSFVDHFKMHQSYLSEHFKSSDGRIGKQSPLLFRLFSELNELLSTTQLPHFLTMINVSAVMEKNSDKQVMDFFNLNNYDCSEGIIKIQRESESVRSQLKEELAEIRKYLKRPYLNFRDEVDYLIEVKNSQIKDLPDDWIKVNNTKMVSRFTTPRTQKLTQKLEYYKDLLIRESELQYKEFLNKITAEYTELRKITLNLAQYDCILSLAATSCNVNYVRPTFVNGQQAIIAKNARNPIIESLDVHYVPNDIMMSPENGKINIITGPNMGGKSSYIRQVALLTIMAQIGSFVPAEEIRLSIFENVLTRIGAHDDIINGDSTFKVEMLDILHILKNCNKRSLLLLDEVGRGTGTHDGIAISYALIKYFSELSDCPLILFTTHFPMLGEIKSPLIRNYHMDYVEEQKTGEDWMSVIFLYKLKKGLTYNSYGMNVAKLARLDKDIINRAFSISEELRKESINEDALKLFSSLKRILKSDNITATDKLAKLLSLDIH
binding result (Msh2–Msh3 [1]),fold immunoprecipitated relative to His–Rad1–Rad10 (6xHis–Saw1),binding result (His–Rad1–Rad10),binding result (Msh2–Msh3 [2]),Binder
binds,~3 fold,,,"His–rad1R218A–Rad10 (complex, S. cerevisiae) chain 1: MSQLFYQGDSDDELQEELTRQTTQASQSSKIKNEDEPDDSNHLNEVENEDSKVLDDDAVLYPLIPNEPDDIETSKPNINDIRPVDIQLTLPLPFQQKVVENSLITEDALIIMGKGLGLLDIVANLLHVLATPTSINGQLKRALVLVLNAKPIDNVRIKEALEELSWFSNTGKDDDDTAVESDDELFERPFNVVTADSLSIEKRRKLYISGGILSITSAILIVDLLSGIVHPNRVTGMLVLNADSLRHNSNESFILEIYRSKNTWGFIKAFSEAPETFVMEFSPLRTKMKELRLKNVLLWPRFRVEVSSCLNATNKTSHNKVIEVKVSLTNSMSQIQFGLMECLKKCIAELSRKNPELALDWWNMENVLDINFIRSIDSVMVPNWHRISYESKQLVKDIRFLRHLLKMLVTSDAVDFFGEIQLSLDANKPSVSRKYSESPWLLVDEAQLVISYAKKRIFYKNEYTLEENPKWEQLIHILHDISHERMTNHLQGPTLVACSDNLTCLELAKVLNASNKKRGVRQVLLNKLKWYRKQREETKKLVKEVQSQDTFPENATLNVSSTFSKEQVTTKRRRTRGASQVAAVEKLRNAGTNVDMEVVFEDHKLSEEIKKGSGDDLDDGQEENAANDSKIFEIQEQENEILIDDGDAEFDNGELEYVGDLPQHITTHFNKDLWAEHCNEYEYVDRQDEILISTFKSLNDNCSLQEMMPSYIIMFEPDISFIRQIEVYKAIVKDLQPKVYFMYYGESIEEQSHLTAIKREKDAFTKLIRENANLSHHFETNEDLSHYKNLAERKLKLSKLRKSNTRNAGGQQGFHNLTQDVVIVDTREFNASLPGLLYRYGIRVIPCMLTVGDYVITPDICLERKSISDLIGSLQNNRLANQCKKMLKYYAYPTLLIEFDEGQSFSLEPFSERRNYKNKDISTVHPISSKLSQDEIQLKLAKLVLRFPTLKIIWSSSPLQTVNIILELKLGREQPDPSNAVILGTNKVRSDFNSTAKGLKDGDNESKFKRLLNVPGVSKIDYFNLRKKIKSFNKLQKLSWNEINELINDEDLTDRIYYFLRTEKEEQEQESTDENLESPGKTTDDNALHDHHNDVPEAPV chain 2: MNNTDPTSFESILAGVAKLRKEKSGADTTGSQSLEIDASKLQQQEPQTSRRINSNQVINAFNQQKPEEWTDSKATDDYNRKRPFRSTRPGKTVLVNTTQKENPLLNHLKSTNWRYVSSTGINMIYYDYLVRGRSVLFLTLTYHKLYVDYISRRMQPLSRNENNILIFIVDDNNSEDTLNDITKLCMFNGFTLLLAFNFEQAAKYIEYLNL"
,,binds,binds,B1
